Consider 14 molecules from patent publication EP4596580A1 (Staidson (Beijing) Biopharmaceuticals Co., Ltd., dated 2025).

Where a chain is given by its changes, count along the chain named.

To fix the notation:
T1: His-mouse LIGHT (mouse)
T1 construct: also called His-musLIGHT
T1 chain: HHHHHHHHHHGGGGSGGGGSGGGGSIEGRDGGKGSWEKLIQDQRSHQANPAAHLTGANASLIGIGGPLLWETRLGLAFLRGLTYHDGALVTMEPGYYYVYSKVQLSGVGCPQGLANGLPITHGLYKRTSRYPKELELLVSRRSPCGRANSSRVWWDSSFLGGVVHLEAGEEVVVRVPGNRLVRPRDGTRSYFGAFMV

T2: His-human LIGHT (human)
T2 construct: also called His-huLIGHT; free LIGHT
T2 chain: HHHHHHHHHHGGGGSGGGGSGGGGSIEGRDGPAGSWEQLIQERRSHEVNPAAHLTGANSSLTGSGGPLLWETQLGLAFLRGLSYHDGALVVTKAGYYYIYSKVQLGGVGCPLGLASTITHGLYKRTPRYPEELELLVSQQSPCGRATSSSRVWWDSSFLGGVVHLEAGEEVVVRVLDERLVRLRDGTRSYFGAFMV

T3: His-cynomolgus monkey LIGHT (cynomolgus monkey)
T3 construct: also called His-cynoLIGHT
T3 chain: T2 chain with P32H, A33G, E47Q, V48N, S83D, V91A, T92N, S149N, A167V

B1: LT-m64 (antibody, human IgG4, V domains shown)
VH: EVKLEESGAELVKPGASVRLSCKTSGYTFTNYYVYWVKQRPGQGLEWIGEINPTNGDPNFNEKFKSKATLTVDKSSSTAYMHLSSLTSEDSAVYYCTRSNWDYGNAMDFWGQGTSVTVSS
VL: DIVMTQSPASLAVSLGQRATISCKASQSVDFDGDGYMNWYQQKPGQPPKLLIYKASHLDSGIPARFSASGSGTDFTLNIHPVEEEDAATYYCQQSIEDPFTFGSGTKLEIK
B2: hum_LT-m85-5 (antibody, human IgG4, V domains shown)
VH: QVQLVQSGAEVKKPGASVKVSCKASGYTFTSYNVHWVRQAPGQGLEWIGAVYPGNGDTSYNQKFKGRATLTADKSTSTAYMELSSLRSEDTAVYYCARGSYYYTSSYFDHWGQGTLVTVSS
VL: DIVLTQSPDSLAVSLGERATINCKASQSVDFDGDSYMNWYQQKPGQPPKLLIYTASNLESGIPDRFSGSGSGTDFTLTISSLQAEDVAVYYCQQSYEDPFTFGQGTKVEIK
notes: humanized from LT-m85
B3: hum_LT-m85-9 (antibody, human IgG4, V domains shown)
VH: B2 VH with A79V
VL: B2 VL with L4M, I62V
notes: humanized from LT-m85
B4: hum_LT-m85-8 (antibody, human IgG4, V domains shown)
VH: B2 VH
VL: B2 VL with L4M, I62V
notes: humanized from LT-m85
B5: hum_LT-m85-6 (antibody, human IgG4, V domains shown)
VH: B2 VH with I48M
VL: B2 VL
notes: humanized from LT-m85
B6: hum_LT-m85-7 (antibody, human IgG4, V domains shown)
VH: B2 VH with A79V
VL: B2 VL
notes: humanized from LT-m85
B7: LT-m17 (antibody, human IgG4, V domains shown)
VH: QVQLQQSGPELVKPGASVKISCKASGYSFTGYFMNWVKQSHGKSLEWIGRIYPYSGDTFYNQKFNNKATLTVDKSSSTAHLELLSLTSEDSAVYYCGRSEHFGRNYGTGAVDYWGQGTSVTVSS
VL: DVVMTQTPLSLPVSLGDQASISCRSSQGLVHSNGNTYLHWYLQKPGQSPKLLIYKVSNRFSGVPDRFSGSGSGTDFTLKISRVEAEDLGIYFCSQSTHVPYTFGGGTKLEIK
B8: LT-m18 (antibody, V domains shown)
VH: B7 VH with Q1E, Q3K, Q5L, Q6E
VL: B7 VL with V2I, M4L, T7S, G28S, I90V, Y101L, G105D, K108R
B9: hum_LT-m37-7 (antibody, human IgG4, V domains shown)
VH: QVQLVQSGAEVKKPGASVKVSCKASGYSFTGYFINWVRQAPGQGLEWIGRIYPYNVNTFYNQNFKGRATMTADKSTSTAYMELSSLRSEDTAVYYCGRGTHYYGSSGAMDYWGQGTLVTVSS
VL: EIVMTQSPATLSVSPGERATLSCKASQNVGTAVAWYQQKPGQSPRLLIYSASNRYTGIPARFSGSGSGTEFTLTISSLQSEDFAVYFCQQYSSYPYTFGGGTKVEIK
notes: humanized from LT-m37
B10: hum_LT-m37-10 (antibody, human IgG4, V domains shown)
VH: B9 VH with M70L
VL: B9 VL with M4L, F87Y
notes: humanized from LT-m37
B11: hum_LT-m37-9 (antibody, human IgG4, V domains shown)
VH: B9 VH with G44S, M70L
VL: B9 VL with M4L, F87Y
notes: humanized from LT-m37
B12: hum_LT-m37-8 (antibody, human IgG4, V domains shown)
VH: B9 VH with A68V
VL: B9 VL
notes: humanized from LT-m37
B13: hum_LT-m37-11 (antibody, human IgG4, V domains shown)
VH: B9 VH
VL: B9 VL with M4L, F87Y
notes: humanized from LT-m37
B14: hum_LT-m37-12 (antibody, human IgG4, V domains shown)
VH: B9 VH with A68V
VL: B9 VL with M4L, F87Y
notes: humanized from LT-m37

The first assay has as its target T1, His-mouse LIGHT. Description: ELISA, His-musLIGHT coated.
As to B1, the binding result is “no binding”.

The target of a further assay is T4, hFc-human LIGHT (human).
T4 construct: also called hFc-huLIGHT
Put plainly: competition ELISA, LTβR-His coated, hFc-huLIGHT added. (ELISA stands for enzyme-linked immunosorbent assay.)
The term IC50 denotes the point on the concentration scale where inhibition reaches its midpoint. B2: the IC50 worked out at 0.174 nM.

As to B3, the concentration for half-maximal inhibition (IC50) came to 0.204 nM.

The molecule B4 registered an IC50 of 0.189 nM.

On to B5, for which the IC50 is 0.195 nM.

Consider B6, for which the IC50 came out at 0.223 nM.

A further assay concerns the target T2, His-human LIGHT. Put plainly: ELISA, His-huLIGHT coated.
The EC50 is the concentration giving half of the maximal effect. In the case of B2, the midpoint of the response, the EC50, lay at 0.0061 nM.

Regarding B3, a half-maximal response (EC50) required 0.002 nM.

B4: the EC50 was determined as 0.00951 nM.

For B5, a half-maximal response (EC50) required 0.00479 nM.

Molecule B6 came in with an EC50 of 0.00542 nM.

A further assay concerns the target T2, His-human LIGHT. Description: ELISA, His-huLIGHT coated. The source holds these as a separate data set.
B7 yielded an EC50 of 0.0871 mg/L.

Take B8: the EC50 stood at 0.0835 mg/L.

In turn, B1 gave an EC50 of 0.0112 mg/L.

For another assay, the target named is LIGHT on the surface of HEK293-LIGHT stable cells (human, UniProt O43557 1-240). Description: cell-based or functional assay.
As to B9, the “IC50, LTβR NF-κB luciferase reporter, HEK293-LIGHT cells” value (“IC50 … HEK293-LIGHT cells” for short) turned out to be 3.72 mg/L.

For B10, the “IC50 … HEK293-LIGHT cells” value came out at 4.46 mg/L.

In the case of B11, the “IC50 … HEK293-LIGHT cells” value stood at 3.86 mg/L.

Take B12: the “IC50 … HEK293-LIGHT cells” value worked out at 3.22 mg/L.

For B13, the “IC50 … HEK293-LIGHT cells” value turned out to be 2.93 mg/L.

For the molecule B14, the “IC50 … HEK293-LIGHT cells” value amounted to 2.57 mg/L.

A further assay concerns the target T3, His-cynomolgus monkey LIGHT. Description: ELISA, His-cynoLIGHT coated.
Take B9: the EC50 was determined as 0.0474 nM.

With B10, the EC50 stood at 0.0463 nM.

Turning to B11, a half-maximal effect (EC50) was put at 0.0478 nM.

The molecule B12 gave an EC50 of 0.0449 nM.

As for B13, the EC50 was 0.0494 nM.

Molecule B14 came in with an EC50 of 0.053 nM.

The target in another assay is T4, hFc-human LIGHT. Description: competition ELISA, LTβR-His coated, hFc-huLIGHT added. This is another data set of the same source.
B9 had an IC50 of 0.069 nM.

In the case of B11, the IC50 was determined as 0.083 nM.

In turn, B12 yielded an IC50 of 0.0676 nM.

B13: the IC50 worked out at 0.0864 nM.

B14 yielded an IC50 of 0.0773 nM.

The target of the next assay is T2, His-human LIGHT. Put plainly: cell-based or functional assay.
As for B9, the “IC50, LTβR NF-κB luciferase reporter, free LIGHT” value came to 0.135 mg/L.

For B10, the “IC50, LTβR NF-κB luciferase reporter, free LIGHT” value came to 0.153 mg/L.

Turning to B11, the “IC50, LTβR NF-κB luciferase reporter, free LIGHT” value was found to be 0.227 mg/L.

With B12, the “IC50, LTβR NF-κB luciferase reporter, free LIGHT” value was 0.17 mg/L.

On to B13, for which the “IC50, LTβR NF-κB luciferase reporter, free LIGHT” value was 0.203 mg/L.

With B14, the “IC50, LTβR NF-κB luciferase reporter, free LIGHT” value was 0.144 mg/L.

In another assay the target is T2, His-human LIGHT. Put plainly: ELISA, His-huLIGHT coated. The source holds these as a separate data set.
For the molecule B9, a half-maximal response (EC50) required 0.0801 mg/L.

In turn, B10 registered an EC50 of 0.0918 mg/L.

Turning to B11, the EC50 worked out at 0.0825 mg/L.

Regarding B12, a half-maximal effect (EC50) was put at 0.0795 mg/L.

Molecule B13 gave an EC50 of 0.0907 mg/L.

In turn, B14 displayed an EC50 of 0.0878 mg/L.

A further assay has as its target T2, His-human LIGHT. Description: SPR, Biacore 8K, antibody on CM5 chip. For orientation: Surface plasmon resonance follows binding to a sensor surface in real time, without labels.
By Kd is commonly meant the free concentration of one partner at which half of the binding sites on the other are occupied at equilibrium, for simple one-to-one binding. Usually koff stands for the rate constant with which the complex falls apart. In general, kon refers to the rate constant with which the complex forms. For B1, the Kd is 0.0557 nM, the koff amounted to 5.61e-05 s⁻¹ and the kon amounted to 1.01e+06 M⁻¹ s⁻¹.

In the next assay the target is T3, His-cynomolgus monkey LIGHT. Put plainly: SPR, Biacore 8K, antibody on CM5 chip.
B7 showed a Kd of 0.0582 nM, a koff of 4.24e-06 s⁻¹ and a kon of 72700 M⁻¹ s⁻¹.

With B8, the Kd amounted to 0.16 nM, the koff was determined as 1.26e-05 s⁻¹ and the kon amounted to 79100 M⁻¹ s⁻¹.

B1 gave an equilibrium dissociation constant (Kd) of 0.0487 nM, a koff of 4.89e-05 s⁻¹ and a kon of 1e+06 M⁻¹ s⁻¹.

Another assay addresses T2, His-human LIGHT. Put plainly: SPR, Biacore 8K, antibody on CM5 chip, human LIGHT.
For the molecule B9, the Kd amounted to 0.041 nM, the koff came to 5.34e-05 s⁻¹ and the kon stood at 1.3e+06 M⁻¹ s⁻¹.

In the case of B11, the Kd was 0.383 nM, the koff is 8.03e-05 s⁻¹ and the kon turned out to be 210000 M⁻¹ s⁻¹.

On to B12, for which the affinity, expressed as Kd, was 0.038 nM; the koff is 4.86e-05 s⁻¹; the kon was 1.28e+06 M⁻¹ s⁻¹.

Consider B13, for which the Kd amounted to 0.062 nM, the koff was determined as 7.69e-05 s⁻¹ and the kon came out at 1.24e+06 M⁻¹ s⁻¹.

B14 registered a Kd of 0.0575 nM, a koff of 6.75e-05 s⁻¹ and a kon of 1.18e+06 M⁻¹ s⁻¹.

The target in another assay is T2, His-human LIGHT. Put plainly: cell-based or functional assay. This is another data set of the same source.
In the case of B7, the “IC50, HVEM NF-κB luciferase reporter (293T-HVEM-NF-κB-Luc), free LIGHT” value stood at 0.184 mg/L.

Regarding B1, the “IC50, HVEM NF-κB luciferase reporter (293T-HVEM-NF-κB-Luc), free LIGHT” value came out at 0.264 mg/L.
